In PMC4499151, “Identifying high-affinity aptamer ligands with defined cross-reactivity using high-throughput guided systematic evolution of ligands by exponential enrichment”:
Residue numbers refer to the chain shown, from its start. In names and notes the source's numbering stands.

T1: human IL-10RA-Fc fusion (human, UniProt Q13651 22-235)
T1 sequence: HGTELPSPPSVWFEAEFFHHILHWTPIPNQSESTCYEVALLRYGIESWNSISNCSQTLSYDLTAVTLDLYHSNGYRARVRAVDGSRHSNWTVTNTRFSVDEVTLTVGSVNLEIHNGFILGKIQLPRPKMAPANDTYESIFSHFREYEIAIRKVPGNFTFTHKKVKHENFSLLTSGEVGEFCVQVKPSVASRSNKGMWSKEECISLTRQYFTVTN

B1: 411-J-A1G (ssRNA)
RNA: GGGAGAGAGGAAGAGGGAUGGGGGCCAUGACGAUGUCGUUACGUAGAUGCAGAGACUCCUAACGACGACUCGCUGAGAUCGAGA
B2: 411-J-G7T (ssRNA)
RNA: B1 RNA with G23A, G29U
B3: 411-J-G30T (ssRNA)
RNA: B1 RNA with G23A, G52U
B4: 411-J-C28T (ssRNA)
RNA: B1 RNA with G23A, C50U

tested on: human IgG (human); assay: filter binding; conditions: Double filter binding, 37 C, binding buffer not detailed; selection buffer 20 mM HEPES, 2 mM CaCl2, 0.1 mg/ml BSA, 100-150 mM NaCl, pH 7.5

“GGGAGAGAGGAAGAGGGAUGGGAAAGACCGUUUUUUAAAACGCUCAAUAUACACGACAUAAACGACGACUCGCUGAGAUCGAGA [446 (#3)]” and “GGGAGAGAGGAAGAGGGAUGGGAGCCAUGACGAUGUCGUUACGUAGAUGCAGAGACUCCUAACGACGACUCGCUGAGAUCGAGA [411-J]” cannot be ordered by Kd: greater than 500 nM for the first, greater than 500 nM for the second.

“GGGAGAGAGGAAGAGGGAUGGGCGUCUCGUCAAUGCCCUACGUUUGUCUGUGCGACGACUCGCUGAGAUCGAGA [RJB#13]” and “GGGAGAGAGGAAGAGGGAUGGGUGCUCAAUUAAGAACCAUCGCUCUCCGGUGCGACGACUCGCUGAGAUCGAGA [RJB#25]” cannot be ordered by Kd: greater than 1000 nM for the first, greater than 1000 nM for the second.

“GGGAGAGAGGAAGAGGGAUGGGUGCUCACAAACGUGAACCAUCGUCUUGUGCCGACGACUCGCUGAGAUCGAGA [RJB#23]” and “GGGAGAGAGGAAGAGGGAUGGGUGCUCACAUACGUGAACCAUCGUCAAUGGCCGACGACUCGCUGAGAUCGAGA [RJB#10]” cannot be ordered by Kd: greater than 1000 nM for the first, greater than 1000 nM for the second.

“GGGAGAGAGGAAGAGGGAUGGGUGCUCAUCUUGAACGCAUUGUUUCUCCGUGCGACGACUCGCUGAGAUCGAGA [RJB#31]” and “GGGAGAGAGGAAGAGGGAUGGGUGCUCCUACUGUGGAACCAUCGUUCUUGUGCGACGACUCGCUGAGAUCGAGA [RJB#17]” cannot be ordered by Kd: greater than 500 nM for the first, greater than 1000 nM for the second.

“GGGAGAGAGGAAGAGGGAUGGGUGCUCGUUUCGAACCAUCGUAACUCCUGUGCGACGACUCGCUGAGAUCGAGA [RJB#161]” and “GGGAGAGAGGAAGAGGGAUGGGUGCUUCAUAGAAACGCGCGAUCUUCCUGUGCGACGACUCGCUGAGAUCGAGA [RJB#44]” cannot be ordered by Kd: greater than 1000 nM for the first, greater than 1000 nM for the second.

same assay, conditions: column inferred from text; Double filter binding, 37 C, binding buffer not detailed; selection buffer 20 mM HEPES, 2 mM CaCl2, 0.1 mg/ml BSA, 100-150 mM NaCl, pH 7.5

In the case of “GGGAGAGAGGAAGAGGGAUGGGAAUCGCUCAGCCGGUCCGGAACUGGCAAAGUCAGGUGCUCCGACGACUCGCUGAGAUCGAGA [405 (cluster E)]”, the Kd is reported as 120 nM.

biological target: T1, human IL-10RA-Fc fusion; assay: filter binding; Double filter binding, 37 C, binding buffer not detailed; selection buffer 20 mM HEPES, 2 mM CaCl2, 0.1 mg/ml BSA, 100-150 mM NaCl, pH 7.5; conditions: protein: commercial; tags: Fc fusion; chain copies: 2; label: 5' 32P

First: B1
Second: B2
The Kd of the first is 2-fold lower: 9 nM for the first, 18 nM for the second.

B3 and B4 are the same in Kd: 18 nM for the first, 18 nM for the second.
